This passage reports Km and Vmax results from PMC4471362.

Substrate in this series: Nc1ncnc2c1ncn2[C@@H]1O[C@H](COP(=O)(O)OP(=O)(O)OP(=O)(O)O)[C@@H](O)[C@H]1O
The experiment in a line: purified protein. The following applies: basal ATPase, 0.4 μM protein, 10 mM HEPES-KOH pH 7.5, 100 mM KCl, 2 mM MgCl2, 0.5 mM DTT, kcat unit as printed.

B1: PfHsp70-z (Plasmodium falciparum 3D7) (protein)
chain: MSVLGIDIGNDNSVVATINKGAINVVRNDISERLTPTLVGFTEKERLIGDSALSKLKSNYKNTCRNIKNLIGKIGTDVKDDIEIHEAYGDLIPCEYNYLGYEVEYKNEKVVFSAVRVLSALLSHLIKMAEKYIGKECKEIVLSYPPTFTNCQKECLLAATKIINANVLRIISDNTAVALDYGMYRMKEFKEDNGSLLVFVNIGYANTCVCVARFFSNKCEILCDIADSNLGGRNLDNELIKYITNIFVNNYKMNPLYKNNTPELCPMGTGRLNKFLVTSTASDQQNGINNKVRIKLQEVAIKTKKVLSANNEASIHVECLYEDLDCQGSINRETFEELCSNFFLTKLKHLLDTALCISKVNIQDIHSIEVLGGSTRVPFIQNFLQQYFQKPLSKTLIADESIARGCVLSAAMVSKHYKVKEYECVEKVTHPINVEWHNINDASKSNVEKLYTRDSLKKKVKKIVIPEKGHIKLTAYYENTPDLPSNCIKELGSCIVKINEKNDKIVESHVMTTFSNYDTFTFLGAQTVTKSVIKSKDEKKKADDKTEDKGEKKDAKDQEQNDDKDQTNDNNMNEKDTNDKKEKNNETNSPNKTELKKGEEGKVQTCYTTIPIETLLAQGSYSSKDIFNFSEQEINMQHSDILEGERLKHLNELETIIYESRSRLNGIYKNFVMDDERDRILLSLDDYENWLYDNIEENKNMFIKKKEEIRDLIKNIVQKFDVYNSKQQNLGNIINHLNNIITQCSNKPSDESQNIINRTTKFLNNINSLQEQEKNKPLYEPPVYTLNDIEAEFNEVTQLAQKFFSKLEVEELAKQKAKQEKEKEKEKEKEKEKEKEKNEETNLDANEEQNNEAKNNEEKENSTKNENSANPEE
By Vmax is commonly meant the top rate of the reaction or transport when substrate is in excess. As for B1, the Km is on record as 283 (+/-3) μM and the Vmax came out at 0.0198 µmol/min/mg.
